For orientation: EC50 means the concentration giving half of the maximal effect. High values mean lower potency in that assay, low ones higher potency in that assay.

The target in one assay is T1, cyno FAP on HEK cells (cynomolgus monkey).
T1 construct: whole, on cells; also called Cyno FAP-positive HEK cells
Nature of the assay: binding to cyno FAP-positive HEK cells.

A further assay deals with T2, soluble FAP (human, UniProt Q12884 26-760, limits assumed).
T2 sequence: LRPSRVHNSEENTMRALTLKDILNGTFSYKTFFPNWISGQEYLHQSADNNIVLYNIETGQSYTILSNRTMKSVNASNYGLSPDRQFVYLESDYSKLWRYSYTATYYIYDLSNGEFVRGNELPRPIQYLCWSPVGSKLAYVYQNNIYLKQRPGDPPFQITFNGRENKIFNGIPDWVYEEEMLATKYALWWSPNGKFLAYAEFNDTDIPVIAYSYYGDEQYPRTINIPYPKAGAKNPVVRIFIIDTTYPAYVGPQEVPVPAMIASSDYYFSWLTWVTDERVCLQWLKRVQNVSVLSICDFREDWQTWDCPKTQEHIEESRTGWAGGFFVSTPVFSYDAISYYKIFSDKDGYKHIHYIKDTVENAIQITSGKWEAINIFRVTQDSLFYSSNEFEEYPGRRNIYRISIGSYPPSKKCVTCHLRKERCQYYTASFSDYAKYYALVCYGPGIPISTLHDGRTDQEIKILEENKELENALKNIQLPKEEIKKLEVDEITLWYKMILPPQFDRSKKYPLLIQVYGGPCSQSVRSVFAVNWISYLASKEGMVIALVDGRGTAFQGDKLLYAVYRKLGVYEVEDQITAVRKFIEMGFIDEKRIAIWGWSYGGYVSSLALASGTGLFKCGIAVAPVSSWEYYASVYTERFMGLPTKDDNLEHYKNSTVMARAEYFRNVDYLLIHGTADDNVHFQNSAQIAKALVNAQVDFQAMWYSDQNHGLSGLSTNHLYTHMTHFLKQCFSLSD
Nature of the assay: cell-based or functional assay.

A further assay has as its target T3, human FAP on cells (human, UniProt Q12884 1-760).
T3 sequence: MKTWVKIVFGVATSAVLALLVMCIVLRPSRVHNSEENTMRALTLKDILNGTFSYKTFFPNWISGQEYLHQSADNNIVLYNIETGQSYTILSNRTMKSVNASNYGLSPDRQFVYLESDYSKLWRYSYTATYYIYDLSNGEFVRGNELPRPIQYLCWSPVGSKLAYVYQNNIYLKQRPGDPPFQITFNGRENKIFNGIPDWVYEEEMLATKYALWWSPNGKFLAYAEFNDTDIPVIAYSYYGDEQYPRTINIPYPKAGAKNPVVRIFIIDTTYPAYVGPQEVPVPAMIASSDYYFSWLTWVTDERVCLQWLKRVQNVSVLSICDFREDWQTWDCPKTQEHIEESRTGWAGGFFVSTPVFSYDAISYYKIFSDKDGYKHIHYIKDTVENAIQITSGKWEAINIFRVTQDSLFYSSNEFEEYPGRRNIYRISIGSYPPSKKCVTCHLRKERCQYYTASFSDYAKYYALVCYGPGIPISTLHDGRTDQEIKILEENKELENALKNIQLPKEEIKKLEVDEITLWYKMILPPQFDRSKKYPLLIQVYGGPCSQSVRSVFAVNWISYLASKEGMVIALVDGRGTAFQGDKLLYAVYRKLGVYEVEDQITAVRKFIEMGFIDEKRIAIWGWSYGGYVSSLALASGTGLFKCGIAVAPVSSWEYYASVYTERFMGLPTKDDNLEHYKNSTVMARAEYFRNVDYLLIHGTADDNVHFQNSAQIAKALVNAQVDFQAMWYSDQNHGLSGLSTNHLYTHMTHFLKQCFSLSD
Nature of the assay: cell-based or functional assay.

The target in another assay is FcγRIIIA (CD16a) (UniProt P08637 17-208, limits assumed). Nature of the assay: SPR, Biacore S200, antibody captured on Protein A chip, FcγR as analyte. Here is the method:
(§1) Binding of CD40.9H3×FAP.LP62 and the analog of RO7300490 to various Fc gamma receptors (FcγR1 (CD64), FcγRIIIA (CD16a), FcγRIIIB (CD16b), FcγRIIA (CD32a), FcγRIIB (CD32b)) was determined in an analyte/capture assay in vitro. Briefly, an SPR assay was performed using a Biacore S200 with a Biacore Series S Protein A chip (Cytiva). All antibodies were prepared at 4.0 μg/ml in 1×HBS-EP+ running buffer (Cytiva) and captured onto flow cells 2, 3, and 4 through a 60 second contact time at 10 μl/min. An analyte series of the FcγRs (BMS In-House Produced) were prepared at 10,000 nM in 1×HBS-EP+ with eight, three-fold dilutions. Kinetic measurements were conducted with a 120 second association followed by a 120 second dissociation at 30 μl/min. Surface regeneration was preformed by 60 second contact time of 50 mM Glycine pH 1.5 solution (Cytiva) at 30 μl/min. Data was processed in Biacore Insight Evaluation Version 5 (Cytiva). Sensorgrams were double referenced and globally fit to a 1:1 Langmuir model were applicable. Where 1:1 model was not sufficient to describe the interaction (fast-on and fast-off rates), steady state equilibrium fitting was used to determine the equilibrium constant.
(In general: In SPR one partner is held on a chip, and binding of the other changes the refractive index at the surface.)

The next assay concerns the target T4, FcγRIIB (CD32b) (UniProt P31994 43-217, limits assumed).
T4 sequence (looked up): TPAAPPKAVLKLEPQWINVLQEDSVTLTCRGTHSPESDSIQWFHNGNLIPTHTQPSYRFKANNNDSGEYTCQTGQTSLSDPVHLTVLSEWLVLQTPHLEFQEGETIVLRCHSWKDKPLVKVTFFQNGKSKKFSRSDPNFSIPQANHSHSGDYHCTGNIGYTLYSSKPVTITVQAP
Described as above. The method, then:
as §1

The next assay concerns the target FcγRIIIB (CD16b) (UniProt O75015 17-200, limits assumed). The assay is described as above. The method, then: as §1
The next assay deals with T5, FcγRI (CD64) (UniProt P12314 16-288, limits assumed).
T5 construct: also called FcγR1 (CD64); FcγR1
T5 sequence (P12314 16-288 limits assumed): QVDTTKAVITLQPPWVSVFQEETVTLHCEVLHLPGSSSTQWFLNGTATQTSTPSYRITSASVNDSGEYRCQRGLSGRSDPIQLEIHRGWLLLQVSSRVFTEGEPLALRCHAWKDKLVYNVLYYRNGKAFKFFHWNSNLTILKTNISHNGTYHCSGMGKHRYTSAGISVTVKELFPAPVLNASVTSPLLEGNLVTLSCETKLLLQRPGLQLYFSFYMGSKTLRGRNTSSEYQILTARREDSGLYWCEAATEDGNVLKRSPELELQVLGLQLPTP
The description is as above. The method, then: as §1

The next assay addresses T6, FcγRIIA (CD32a) (UniProt P12318 34-217, limits assumed).
T6 sequence (looked up): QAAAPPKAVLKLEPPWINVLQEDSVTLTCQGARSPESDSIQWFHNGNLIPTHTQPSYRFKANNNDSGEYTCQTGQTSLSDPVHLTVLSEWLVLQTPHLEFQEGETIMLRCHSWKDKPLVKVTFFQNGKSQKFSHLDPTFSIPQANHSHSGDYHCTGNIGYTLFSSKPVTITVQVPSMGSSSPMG
Described as above. Here is the method: as §1

Chain of FcγRIIIA (CD16a) (P08637 17-208 limits assumed): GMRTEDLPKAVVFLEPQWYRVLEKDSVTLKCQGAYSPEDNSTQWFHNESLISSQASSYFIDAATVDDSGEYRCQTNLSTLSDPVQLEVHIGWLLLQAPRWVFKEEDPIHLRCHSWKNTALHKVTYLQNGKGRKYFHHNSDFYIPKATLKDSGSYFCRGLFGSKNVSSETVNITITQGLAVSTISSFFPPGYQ
Chain of FcγRIIIB (CD16b) (O75015 17-200 limits assumed): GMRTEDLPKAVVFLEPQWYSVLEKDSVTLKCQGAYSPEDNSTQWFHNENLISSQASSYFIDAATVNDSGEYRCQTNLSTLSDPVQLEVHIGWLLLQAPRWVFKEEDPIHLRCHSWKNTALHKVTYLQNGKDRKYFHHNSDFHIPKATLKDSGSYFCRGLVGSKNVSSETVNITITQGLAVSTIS

B1: CD40.9H3×FAP.LP62 bispecific antibody (bispecific antibody, human IgG1, kappa, L234A L235A)
heavy 1: EVQLVESGGGLVQPGGSLRLSCAASGFTFIGYSMNWVRQAPGKGLEWVSYISSYESTIYYADSVKGRFTISRDNAKNSLYLQMNSLRAEDTAVYYCARSRITLVRGVPRYFDLWGRGTLVTVSSASTKGPSVFPLAPSSKSTSGGTAALGCLVKDYFPEPVTVSWNSGALTSGVHTFPAVLQSSGLYSLSSVVTVPSSSLGTQTYICNVNHKPSNTKVDKKVEPKSCDKTHTCPPCPAPEAAGGPSVFLFPPKPKDTLMISRTPEVTCVVVSVSHEDPEVKFNWYVDGVEVHNAKTKPREEQYNSTYRVVSVLTVLHQDWLNGKEYKCKVSNKALPAPIEKTISKAKGQPREPQVYVLPPSREEMTKNQVSLLCLVKGFYPSDIAVEWESNGQPENNYLTWPPVLDSDGSFFLYSKLTVDKSRWQQGNVFSCSVMHEALHNHYTQKSLSLSPG
heavy 2: EVQLVESGGGLVQPGGSLRLSCAASGFTFIGYSMNWVRQAPGKGLEWVSYISSYESTIYYADSVKGRFTISRDNAKNSLYLQMNSLRAEDTAVYYCARSRITLVRGVPRYFDLWGRGTLVTVSSASTKGPSVFPLAPSSKSTSGGTAALGCLVKDYFPEPVTVSWNSGALTSGVHTFPAVLQSSGLYSLSSVVTVPSSSLGTQTYICNVNHKPSNTKVDKKVEPKSCDKTHTCPPCPAPEAAGGPSVFLFPPKPKDTLMISRTPEVTCVVVSVSHEDPEVKFNWYVDGVEVHNAKTKPREEQYNSTYRVVSVLTVLHQDWLNGKEYKCKVSNKALPAPIEKTISKAKGQPREPQVYVYPPSREEMTKNQVSLTCLVKGFYPSDIAVEWESNGQPENNYKTTPPVLDSDGSFALVSKLTVDKSRWQQGNVFSCSVMHEALHNHYTQKSLSLSPGGGSGGGGSGGGGSGGGGSEVQLLESGGGLVQPGGSLRLSCAASGFTFSSRGMSWVRQAPGKCLEWVSFISSSGTYVYYADSVKGRFTISRDNSKNTLYLQMNSLRAEDTAVYYCARDLPRTGVYFGMDVWGQGTTVTVSSGGGGSGGGGSGGGGSGGGGSDIQMTQSPSSLSASVGDRVTITCRASQSIFNYLNWYQQKPGKAPKLLIYGASTLQSGVPSRFSGSGSGTDFTLTISSLQPEDFATYYCQESYSTPYTFGCGTKVEIK
light: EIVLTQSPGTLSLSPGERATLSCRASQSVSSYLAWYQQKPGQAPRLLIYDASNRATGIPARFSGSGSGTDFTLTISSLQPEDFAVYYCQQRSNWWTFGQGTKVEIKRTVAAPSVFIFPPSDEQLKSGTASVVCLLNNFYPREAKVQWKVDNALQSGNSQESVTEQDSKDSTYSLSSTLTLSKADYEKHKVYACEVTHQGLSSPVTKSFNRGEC
notes: 2+1 format: two anti-CD40 9H3 Fabs on an IgG1 Fc with L234A, L235A, D265S and heterodimerization mutations; Ratio 1:1:2
In turn, B1 returned an EC50 in the assay with cyno FAP on HEK cells of 3.6 nM. In addition, in the assay with soluble FAP, the “fold reduction in potency of IL12p40 secretion with 120 ng/mL soluble FAP” value turned out to be 4.2 fold. Further, the “fold reduction in potency of IL12p40 secretion with 480 ng/mL soluble FAP” value with soluble FAP was 7.5 fold. Further, in the assay with human FAP on cells, the “IL12p40 secretion, human DC + HFF1 co-culture, EC50” value came out at 0.079 nM. Moreover, the “TNFα release, CD40-positive macrophages + HFF1 co-culture, EC50” value with human FAP on cells turned out to be 0.12 nM. The binding result with FcγRIIIA (CD16a), with FcγRIIB (CD32b), in the assay with FcγRIIIB (CD16b), with FcγRI (CD64) and in the assay with FcγRIIA (CD32a) was “no binding” throughout.

Source of the values: patent publication US20250376536A1 (Bristol-Myers Squibb, published 2025).
